Consider seven molecules from patent US20110150888A1 (Amgen, published 2011).

Where no end group is shown, it is not given here.

Sequences and labels used below:
B1: murine antibody 2.7 (antibody, V domains shown)
VH: QIQLVQSGPELKKPGETVKISCKASGYTFTTYGMSWVKQAPGKGLKWMGWINTYSGVPTYADDFKGRFAFSLETSASTAYLQINNLKNEDTATYFCGRDHYYGEVAYWGQGTLVTVSA
VL: DIVLTQSPASLAVSLGQRATISCRASESVDSYGNSFMHWYQQKPGQPPKLLIYRASNLESGIPARFSGSGSRTDFTLTINPVEADDVATYYCHQSNEEYTFGGGTKLEIK
notes: Murine monoclonal antibody; murine IgG1 was used as its isotypic control; also called Ab2.7; Ab 2.7
B7: human hepcidin (mature, 25 amino acids) (peptide)
peptide: DTHFPICIFCCGCCHRSKCGMCCKT
modifications: disulfide (positions not given here); also: mono-biotinylated in some assays, site not given here
notes: the form is named in each assay field; also called rhuHepc; rhHepc

Test [1] has as its target B7. Description: BIAcore, recombinant human hepcidin immobilised on a CM5 chip, 50 nM antibody bound at pH 7.4, dissociation buffers of pH 7.4, 6 and 5.5 (curves not labelled by pH). How it is done:
(§1) Off-rate analysis of dissociation at different pHs was also performed. A slow off-rate is expected to predict increased binding interaction over a longer period of time, while a faster off-rate is expected to predict decreased binding interaction. For example, a faster off-rate at lower pH is expected to predict greater release of antigen at lower pH. Solution equilibrium binding analysis was performed using BIAcore to study the off-rates of antibodies 1S1, 1S3, 2.7, 18B11, 23F11 and 26F11 with recombinant human hepcidin (SEQ ID NO: 9).
Immobilization of recombinant human hepcidin (rhuHepc) to a BIAcore sensor chip surface was performed according to manufacturer's instructions at a flow rate 10 μL/min of running buffer (DPBS: Dulbecco's Phosphate Buffer Salinel X, no CaCl or MgCl, with 0.005% Biacore surfactant P-20). The carboxylated matrix of the sensor chip was first activated with a 60 μL injection of a mixture containing 0.2 M EDC(N-ethyl-N-(dimethylamine-propyl)carbodiimide in water, from BIAcore) and 0.05M NHS (N-hydroxysuccinimide in water, from Biacore). 55 μL of recombinant human hepcidin (1 μg/ml in 10 mM Na-acetate pH4.0) was injected to immobilize onto the sensor chip. The excess reactive groups of the sensor chip were deactivated with an injection of 60 μL of ethanolamine (1.0M, from Biacore).
After rhuHepc was immobilized on the CM5 chip with low density, 50 nM of antibodies 1S1, 1S3, 2.7, 18B11, 23F11 and 26F11 were injected over and bound the rhuHepc surface at pH 7.4. Dissociation buffers with pH 7.4, pH6 and pH 5.5 were run over the bound surface. The dissociation curves were obtained.

A further test addresses T1, mouse hepcidin (mouse, UniProt Q9EQ21 59-83).
T1 peptide (looked up): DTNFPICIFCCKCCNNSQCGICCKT
Description: competition ELISA.

In test [2] the target is B7. In words: KinExA solution equilibrium, human hepcidin-coated beads. Here is the method: SA-Sepharose beads were pre-coated with biotinylated human hepcidin (SEQ ID NO: 9) and blocked with BSA according to manufacturer's instructions. Antibodies and hepcidin were diluted in PBS/0.1% BSA/0.05% NaN₃ buffer. Fixed concentrations of antibodies 15E1, 15E1 W52H, 15E1 A99H, 15E1 N521-1, 15E1 A107H and 18B11 were incubated with various concentrations of human hepcidin at room temperature for 8 hours before being run through the human hepcidin-coated beads. The amount of the bead-bound antibody was quantified by fluorescently (Cy5)-labeled goat anti-murine-IgG (H+L) antibody (Jackson Immuno Research, West Grove, Pa.). The binding signal is proportional to the concentration of free antibody at equilibrium. Dissociation equilibrium constant (KD) was obtained from nonlinear regression of the competition curves using a dual-curve one-site homogeneous binding model (KinExATM Pro software).

Test [3] addresses B7. Description: antibody at 1:250 dilution; KinExA / BIAcore named in the paragraph.
The target of test [4] is B7. In words: ELISA, mono-biotinylated human hepcidin on Neutravidin plate, pH 6.0. How it is done: (§2) Differential pH binding of the antibodies listed above in Table 3 was then determined by ELISA. 50 μL of Neutravidin (Pierce) at 8 μg/mL in 1×PBS was coated upon a Nunc Maxisorp 384-well plate, and incubated at 37° C. for 1 hr. After blocking the wells with 0.1% BSA/PBS/0.05% Tween20 for 1 hour at room temperature, plates were washed six times with PBS/0.05% Tween20. 25 μL of mono-biotinylated hepcidin at 50 ng/mL in 0.1% BSA/PBS/0.05% Tween20 was added to the 384-well plate, and incubated at room temperature for 1 hour. The plates were next washed six times with PBS/0.05% Tween20. Starting hepcidin antibody concentrations were normalized to 1 μg/mL for pH 5.5 and 6.0 conditions and to 100 ng/mL for pH 7.4 conditions. The hepcidin antibodies were serially diluted 3-fold in PBS/1% NFDM pH 7.4 and 4-fold in PBS/1% NFDM pH 6.0 and 5.5. The dilutions and titrations were performed in polypropylene 96-well dilution plates, and then were transferred in duplicate to a Neutravidin-coated 384-well plate. The biotinylated hepcidin and antibodies were incubated for 2 hours at room temperature. The plate was next washed six times with PBS/0.05% Tween20. 25 μL it of goat anti-huIgG-horseradish peroxidase at a 1:7000 dilution in 0.1% BSA/PBS/0.05% Tween20 was next added to each well of the assay plate. The plate was finally washed six times in PBS/0.05% Tween20. Enhanced K-Blue 3,3′,5,5′-Tetramethylbenzidine (TMB) Substrate (Neogen) was added and the reaction stopped using 1 M H₃PO₄ after 10 minutes of incubation at room temperature. The absorption was measured at 450 nm on a plate reader. Binding data were analyzed by non-linear regression analysis (sigmoidal dose-response, variable slope) to generate EC₅₀ values using GraphPad Prism® software. […] Double combinations of these mutants were made.

Test [5] concerns the target B7. In words: ELISA, mono-biotinylated human hepcidin on Neutravidin plate, pH 7.4. Here is the method:
as §2

Test [6] addresses B7. In words: BIAcore, rhuHepc immobilised on CM5 chip, dissociation buffers of pH 7.4, 6 and 5.5; dissociation buffer pH 7.4. Here is the method: as §1
Immobilization of recombinant human hepcidin (rhuHepc) to a BIAcore sensor chip surface was performed according to manufacturer's instructions at a flow rate 10 μL/min of running buffer (DPBS: Dulbecco's Phosphate Buffer Salinel X, no CaCl or MgCl, with 0.005% Biacore surfactant P-20). The carboxylated matrix of the sensor chip was first activated with a 60 μL injection of a mixture containing 0.2 M EDC(N-ethyl-N-(dimethylamine-propyl)carbodiimide in water, from BIAcore) and 0.05M NHS (N-hydroxysuccinimide in water, from Biacore). 55 μL of recombinant human hepcidin (1 μg/ml in 10 mM Na-acetate pH4.0) was injected to immobilize onto the sensor chip. The excess reactive groups of the sensor chip were deactivated with an injection of 60 μL of ethanolamine (1.0M, from Biacore). […]

In test [7] the target is B7. In words: sandwich ELISA built from 1S1 and 23F11 (one curve for the pair of antibodies), hepcidin titrated; the axis gives hepcidin levels before a 50-fold pre-dilution.
The target in test [8] is B1. Description: competitive binding assay, luminescence, standards in rabbit serum: unlabelled hepcidin against biotinylated human hepcidin (0.25 nM) for Ab2.7. Here is the method:
(§3) Hepcidin levels were determined using hepcidin standards of varying concentrations (from 1.4-300 ng/ml) spiked into buffer (5% BSA:I-block), rabbit serum, or pooled human serum. Hepcidin was added to equal volumes of 40 ng/mL of Ab2.7 and incubated for 120 minutes. 25 μl/well of mixed solution was added to Black half area plates coated with 1-2 μg/mL G×M capture antibody. 25 μL/well of biotinylated hepcidin was added at 0.25 nM. The plate was covered with plate film sealer and incubated at room temperature (25° C.) on a plate shaker at around <200 RPM for around 60 minutes. The plate was washed and then 50 μL/well of Poly horseradish peroxidase amplification reagent at 1:2000 was added. The plate was allowed to sit for 30 minutes and was then washed with a plate washer using PBS or KPL buffer 6 times. The plate was patted dry and a luminescent substrate (Femto or Pico) was quickly added. The plate was read with luminometer (ex: Lmax 340) for 1 second using Femto or Pico Substrate. […] (FIG. 18).

The target of test [9] is B1. In words: competitive binding assay, luminescence, standards in buffer (5% BSA: I-block): unlabelled hepcidin against biotinylated human hepcidin (0.25 nM) for Ab2.7. Here is the method:
as §3

Test [10] addresses B1. Description: competitive binding assay, luminescence, standards spiked into pooled human serum (endogenous hepcidin present, not counted on the axis): unlabelled hepcidin against biotinylated human hepcidin (0.25 nM) for Ab2.7. How it is done:
as §3

On to B1, for which the binding result in test [1] is on record as “binds”.

B2: antibody 26F11 (antibody, V domains shown)
VH: QVQLVESGGGVVQPGRSLRLSCAASGFTFSNYGMHWVRQAPGKGLEWVAVIWYVGSNKYYADSVKGRFTISRDNSKNTLYLQMNSLRAEDTAVYYCARAQEGMAPDAFDIWGQGTMVTVSS
VL: SYELTQPPSVSVSPGQTASITCSGDKMGERYACWYQQKPGQSPILVIYQDTKRPSGIPERFSGSNSGNTATLTISGTQAMDEADYYCQAWYSSTNVVFGGGTKLTVL
notes: Human antibody
B2: the binding result in test [1] is recorded as “binds”.

B3: antibody 1S3 (antibody, human IgG2, lambda, V domains shown)
VH: QVQLVESGGGVVQPGRSLRLSCAASGFTFSSYGMHWVRQAPGKGLEWVAVIWYAESNKYYADSVKGRFTISRDNSKNTLYLQMNSLRAEDTAVYYCARAQEGIAPDAFDIWGQGTMVTVSS
VL: YELTQPPSVSVSPGQTATITCSGDKLGERYASWYQQRPGQSPVLVIYQDIKRPSGIPERFSGSNSGNTATLTISGTQAMDEADYFCQAWYSSTNVLFGGGTKLTVLG
notes: Human antibody
Turning to B3, the binding result in test [1] was “binds”.

B4: antibody 18B11 (antibody, V domains shown)
VH: QVQLQQWGAGPLKPSETLSLTCAVYNGSFSGYYWSWIRQPPGKGLEWIGDINHSGNTKYNPSLKSRVTISVDTSKNQFSLKLSSVTAADTAVYYCARGDFWSGFDWFDPWGQGTLVTVSS
VL: QSALTQPASVSGSPGQSITISCTGTSSNVGSYNLVSWYQQHPGKAPKLMISEVSKRPSGLSNRFSGSKSGNTASLTISGLQAEDEADYYCCSYAGSSTLIFGGGTKLTVL
notes: Human antibody from Xenomouse IgG2 or IgG4 mice; also called 181311
On to B4, for which, in the test with mouse hepcidin, the binding result is on record as “no binding”. Besides, the Kd in [2] is 7.4 nM. The “fold reduction in affinity at pH 6 compared to pH 7.4” value in test [3] is around 10 fold. For the same molecule, the values for the EC50 in test [4] and in [5] were 244 ng/mL and 2.7 ng/mL, respectively. Further, the koff in [6] was above 0.01 s⁻¹.

B5: antibody 23F11 (antibody, V domains shown)
VH: QVQLQQSGPGLVKPSQTLSLTCAISGDSVSSNSAAWNWIRQSPSRGLEWLGRTYYRSKWFNDYAVSVQSRITINPDTSKNQFSLQLNSVTPEDTAVYYCARGIVFSYAMDVWGQGTTVTVSS
VL: NFMLTQPHSVSESPGKTVTISCTRSSGSIASYYVQWYQQRPGSSPTTVIYEDSQRPSGVPDRFSGSIDSSSNSASLTISGLKTEDEADYYCQSYDSSNVVFGGGTKLTVL
notes: Human antibody
Regarding B5, in [7], the “EC50 (read off the curve)” value was around 100 ng/mL.

B6: antibody 1S1 (antibody, human IgG2, kappa, V domains shown)
VH: QVQLVQSGDEVKKPGASVKVSCKASGYTFIKYGISWVRQAPGQGLEWMGWIGAFNGNTDYARNLQARVTMTTDTSTSTAYMELRSLRSDDTAVYYCAREGWNDDYFSGLDVWGQGTTVTVSS
VL: EIVLTQSPGTLSLSPGERATLSCRASQSVSSNYLAWYQQKPGQAPRLLIYGASSRATGIPDRFSGSGSGTDFTLIISRLEPEDFVVYYCQQYGSSLTFGGGTKVEIKR
notes: Human antibody; also called Ab 1S1
As to B6, the “EC50 (read off the curve)” value in test [7] is around 100 ng/mL.

In the case of B7, the figures for the “IC50 (read off the curve)” value with murine antibody 2.7 [8], in the test with murine antibody 2.7 [9] and in the test with murine antibody 2.7 [10] were around 7 ng/mL, around 8 ng/mL and around 10 ng/mL, respectively.
